From the supplement of paper PMC7125110
± gives the standard error. Variants at the floor of the assay were thinned out.

B1: glmS ribozyme (parent)
chain: AUAAAAGCGCCAGAACUACAGAAAUGUAGUUGACGAGGAGGAGGUUUAUCGAAUUUUCGGCGGAUGCCUCCAAA

Key:
Conditions in all cases: with glucosamine-6-phosphate
glucosamine-6-phosphate [1] = variants of: B1; experiment: self-cleavage kobs at 40 uM GlcN6P; higher = faster cleavage; RNA array
How it was run: (§1)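 Weighted Michaelis–Menten fits across concentrations supplied kcat and KM, based on kobs from one- or two-exponential decay fits to normalised per-tile medians. The data came from barcoded ribozyme variants transcribed in situ by E. coli RNA polymerase on sequenced MiSeq chips and tracked at 37 °C by a hybridised Cy3 probe. Glucosamine-6-phosphate (40 μM to 10 mM) in HEPES/KCl/Mg(OAc)2 buffer was flowed in.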

glucosamine-6-phosphate [2] = variants of: B1; experiment: self-cleavage kobs at 160 uM GlcN6P; higher = faster cleavage; RNA array
How it was run: as §1

glucosamine-6-phosphate [3] = variants of: B1; experiment: self-cleavage kobs at 10000 uM GlcN6P; higher = faster cleavage; RNA array
How it was run: as §1

glucosamine-6-phosphate [4] = variants of: B1; experiment: self-cleavage kobs at 640 uM GlcN6P; higher = faster cleavage; RNA array
How it was run: as §1

glucosamine-6-phosphate [5] = variants of: B1; experiment: self-cleavage kobs at 2500 uM GlcN6P; higher = faster cleavage; RNA array
How it was run: as §1

Row | Variant | self-cleavage kobs at 40 uM GlcN6P (glucosamine-6-phosphate [1]) | self-cleavage kobs at 160 uM GlcN6P (glucosamine-6-phosphate [2]) | self-cleavage kobs at 10000 uM GlcN6P (glucosamine-6-phosphate [3]) | self-cleavage kobs at 640 uM GlcN6P (glucosamine-6-phosphate [4]) | self-cleavage kobs at 2500 uM GlcN6P (glucosamine-6-phosphate [5])
1 | AUAAAAGCGCCAGAACUACAGAAAUGUAGUUGACGAGGAGGAGGUUUAUUGAAAUUUCGGCGGAUGCCUCCAAA | < 1e-05 s⁻¹ | < 1e-05 s⁻¹ | 5.02e-05 ± 9.2e-06 s⁻¹ | – | –
2 | AUAAAAGCGCCAGAACUACAGAAAUGUAGUUGACGAGGAGGAGGUUUAUGGAAUUUUCGGCGGAUACCUACAAA | 7.79e-05 ± 2.3e-05 s⁻¹ | – | – | – | –
3 | AUAAAAGCGCCAGAACUACAGAAAUGUAGUUGACGAGGAGGAGGUUUAUGGACUUUUCGGCGGAUGGCUCCAAA | 7.76e-05 ± 2.5e-05 s⁻¹ | 0.000121 ± 2.6e-05 s⁻¹ | 5.98e-05 ± 1.9e-05 s⁻¹ | 0.000198 ± 6.2e-05 s⁻¹ | 0.000336 ± 0.00012 s⁻¹
4 | AUAAAAGCGCCAGAACUACAGAAAUGUAGUUGACGAGGAGGAGGUUUAUGGAAUUUUCCGCGGAUGGCUCCAAA | 0.00018 ± 5.4e-05 s⁻¹ | – | 0.000119 ± 2.8e-05 s⁻¹ | – | –
5 | AUAAAAGCGCCAGAACUACAGAAAUGUAGUUGACGAGGAGGAGGUUUAUUGAAUUUUCGGCGGCUGACUCCAAA | < 1e-05 s⁻¹ | – | – | < 1e-05 s⁻¹ | < 1e-05 s⁻¹
6 | AUAAAAGCGCCAGAACUACAGAAAUGUAGUUGACGAGGAGGAGGUUUAUCAAAUUUUGGGCGGAUGCCUCCAAA | < 1e-05 s⁻¹ | – | < 1e-05 s⁻¹ | – | –
7 | AUAAAAGCGCCAGAACUACAGAAAUGUAGUUGACGAGGAGGAGGUUUAUGGAAUUUUCAGCGGAUGCCUCCAAA | 4.42e-05 ± 2.2e-05 s⁻¹ | 8.57e-05 ± 2.1e-05 s⁻¹ | – | – | –
8 | AUAAAAGCGCCAGAACUACAGAAAUGUAGUUGACGAGGAGGAGGUUUAUCCUAUUUUCGGCGGAUGCCUCCAAA | < 1e-05 s⁻¹ | – | < 1e-05 s⁻¹ | < 1e-05 s⁻¹ | –
9 | AUAAAAGCGCCAGAACUACAGAAAUGUAGUUGACGAGGAGGAGGUUUAUCAAAUUUUCGGCGGAUGCCCCCAAA | < 1e-05 s⁻¹ | – | < 1e-05 s⁻¹ | – | –
10 | AUAAAAGCGCCAGAACUACAGAAAUGUAGUUGACGAGGAGGAGGUUUAUGGAAUUUUCGGCGGAUUCCUCCAAA | 0.000495 ± 0.00015 s⁻¹ | – | – | – | 0.000123 ± 5.1e-05 s⁻¹
11 | AUAAAAGCGCCAGAACUACAGAAAUGUAGUUGACGAGGAGGAGGUUUAUCCAAUUUUCGGCGAAUGCCUCCAAA | < 1e-05 s⁻¹ | < 1e-05 s⁻¹ | – | – | < 1e-05 s⁻¹
12 | AUAAAAGCGCCAGAACUACAGAAAUGUAGUUGACGAGGAGGAGGUUUAGCGAAUUUUCGGCGGAUCCCUCCAAA | < 1e-05 s⁻¹ | – | – | – | < 1e-05 s⁻¹
13 | AUAAAAGCGCCAGAACUACAGAAAUGUAGUUGACGAGGAGGAGGUUUAUAGACUUUUCGGCGGAUGCCUCCAAA | < 1e-05 s⁻¹ | – | – | – | –
14 | AUAAAAGCGCCAGAACUACAGAAAUGUAGUUGACGAGGAGGAGGUUUAUGAAAUUUUCAGCGGAUGCCUCCAAA | < 1e-05 s⁻¹ | – | – | – | –
15 | AUAAAAGCGCCAGAACUACAGAAAUGUAGUUGACGAGGAGGAGGUUUAUGGAAUUUACGGCGUUUGCCUCCAAA | 7.9e-05 ± 2.7e-05 s⁻¹ | – | – | – | –
16 | AUAAAAGCGCCAGAACUACAGAAAUGUAGUUGACGAGGAGGAGGUUUAUGGAUUUUUCGGCGUAUGCCACCAAA | 0.00027 ± 6.1e-05 s⁻¹ | 0.000207 ± 5.6e-05 s⁻¹ | 0.000127 ± 2.4e-05 s⁻¹ | – | 0.000121 ± 3.5e-05 s⁻¹
17 | AUAAAAGCGCCAGAACUACAGAAAUGUAGUUGACGAGGAGGAGGUUUAUAGAAUUUGCGGCGGAUGCUUCCAAA | < 1e-05 s⁻¹ | – | < 1e-05 s⁻¹ | – | –
18 | AUAAAAGCGCCAGAACUACAGAAAUGUAGUUGACGAGGAGGAGGUUUAUGGAAUUUAGGGCGGAUGCCUCCAAA | 8.29e-05 ± 2.4e-05 s⁻¹ | 0.000517 ± 0.00012 s⁻¹ | – | 0.000297 ± 9.4e-05 s⁻¹ | 7.43e-05 ± 2.1e-05 s⁻¹
19 | AUAAAAGCGCCAGAACUACAGAAAUGUAGUUGACGAGGAGGAGGUUUAUCCAAUUUUAGGCGGAUGCCUACAAA | < 1e-05 s⁻¹ | – | – | – | –
20 | AUAAAAGCGCCAGAACUACAGAAAUGUAGUUGACGAGGAGGAGGUUUAUAGAAUUUUCCGCGGAUGCCUCCAAA | < 1e-05 s⁻¹ | – | < 1e-05 s⁻¹ | < 1e-05 s⁻¹ | < 1e-05 s⁻¹
21 | AUAAAAGCGCCAGAACUACAGAAAUGUAGUUGACGAGGAGGAGGUUUAUGGAAUUUUCGGCGGAUGCCUACAAA | 8.32e-05 ± 1.7e-05 s⁻¹ | 0.000173 ± 5.4e-05 s⁻¹ | 7.91e-05 ± 1.3e-05 s⁻¹ | 0.000163 ± 4.1e-05 s⁻¹ | 0.000238 ± 5.8e-05 s⁻¹
22 | AUAAAAGCGCCAGAACUACAGAAAUGUAGUUGACGAGGAGGAGGUUUAGAGAAUUUUCGGCGGAUGCCUCCAAA | < 1e-05 s⁻¹ | < 1e-05 s⁻¹ | – | – | –
23 | AUAAAAGCGCCAGAACUACAGAAAUGUAGUUGACGAGGAGGAGGUUUAUGGAAUUUUCGGCGGACGUCUCCAAA | 6.84e-05 ± 1.4e-05 s⁻¹ | – | 9.96e-05 ± 1.4e-05 s⁻¹ | – | 0.000106 ± 2e-05 s⁻¹
24 | AUAAAAGCGCCAGAACUACAGAAAUGUAGUUGACGAGGAGGAGGUUUAUCAAAUUUUCGGCGGCUGCCUCCAAA | < 1e-05 s⁻¹ | < 1e-05 s⁻¹ | < 1e-05 s⁻¹ | – | < 1e-05 s⁻¹
25 | AUAAAAGCGCCAGAACUACAGAAAUGUAGUUGACGAGGAGGAGGUUUAUCCAAUUUUCGGUCGAUGCCUCCAAA | < 1e-05 s⁻¹ | – | < 1e-05 s⁻¹ | – | –
26 | AUAAAAGCGCCAGAACUACAGAAAUGUAGUUGACGAGGAGGAGGUUUACCGAAUUUCCGGCGGAUGCCUCCAAA | < 1e-05 s⁻¹ | < 1e-05 s⁻¹ | < 1e-05 s⁻¹ | < 1e-05 s⁻¹ | –
27 | AUAAAAGCGCCAGAACUACAGAAAUGUAGUUGACGAGGAGGAGGUUUAUUGAAUUUUUGGCGGAUGCCUCCAAA | < 1e-05 s⁻¹ | – | < 1e-05 s⁻¹ | < 1e-05 s⁻¹ | –
28 | AUAAAAGCGCCAGAACUACAGAAAUGUAGUUGACGAGGAGGAGGUUUACCGAAUUUUCGGCGGACGCCUCCAAA | < 1e-05 s⁻¹ | – | < 1e-05 s⁻¹ | < 1e-05 s⁻¹ | –
